From article PMC6479807

What was measured:
[1] = target: PsSYM10 extracellular domain (PsSYM10-ECD) (Pisum sativum (pea))
[2] = target: PsSYM10 extracellular domain (PsSYM10-ECD) (Pisum sativum (pea)); remark: listed apart in the source
[3] = target: PsSYM10 extracellular domain (PsSYM10-ECD) (Pisum sativum (pea)); remark: listed apart in the source

PsK1-ECD with P169S replacement in LysM3 (as in the k1-2 mutant line) (domain or fragment)
hypersensitive response in N. benthamiana leaves on co-production of full-length PsSYM10 and full-length PsK1-6xHIS with P169→S; percent of leaves with HR [1]: 53%

PsK1-ECD with S59F replacement in LysM1 (as in the k1-3 mutant line) (domain or fragment)
hypersensitive response in N. benthamiana leaves on co-production of full-length PsSYM10 and full-length PsK1-6xHIS with the LysM1 replacement (k1-3); percent of leaves with HR [2]: 93%

PsK1 extracellular domain (PsK1-ECD), wild type (domain or fragment)
hypersensitive response (cell death) in N. benthamiana leaves 48–72 h after infiltration, on co-production of full-length PsSYM10-3xFLAG and PsK1-6xHIS; percent of leaves with HR [3]: 90%
